± gives the standard deviation of the averaged measurements.
Assay: total protein half-life in vivo (active degradation + dilution); higher = more stable protein
[1] = E. coli NCM3722 delta-clpP delta-lon delta-hslV, growth: N-lim chemostat, doubling time 6 h
[2] = E. coli NCM3722 delta-clpP, growth: N-lim chemostat, doubling time 6 h
[3] = E. coli NCM3722 delta-hslV, growth: N-lim chemostat, doubling time 6 h
[4] = E. coli NCM3722 delta-smpB, growth: N-lim chemostat, doubling time 6 h
[5] = wild type E. coli NCM3722, growth: C-lim chemostat, doubling time 3 h
[6] = wild type E. coli NCM3722, growth: C-lim chemostat, doubling time 6 h
[7] = wild type E. coli NCM3722, growth: C-lim chemostat, doubling time 12 h
[8] = wild type E. coli NCM3722, growth: N-lim chemostat, doubling time 6 h
[9] = wild type E. coli NCM3722, growth: N-lim chemostat, doubling time 12 h
[10] = wild type E. coli NCM3722, growth: P-lim chemostat, doubling time 6 h
[11] = wild type E. coli NCM3722, growth: P-lim chemostat, doubling time 12 h
[12] = E. coli NCM3722 delta-lon, growth: N-lim chemostat, doubling time 6 h

Sequence | total protein half-life in vivo [1] | total protein half-life in vivo [2] | total protein half-life in vivo [3] | total protein half-life in vivo [4] | total protein half-life in vivo [5] | total protein half-life in vivo [6] | total protein half-life in vivo [7] | total protein half-life in vivo [8] | total protein half-life in vivo [9] | total protein half-life in vivo [10] | total protein half-life in vivo [11] | total protein half-life in vivo [12]
MDLLIVLTYVALAWAVFKIFRIPVNQWTLATAALGGVFLVSGLILLMNYNHPYTFTAQKAVIAIPITPQVTGIVTEVTDKNNQLIQKGEVLFKLDPVRYQARVDRLQADLMTATHNIKTLRAQLTEAQANTTQVSAERDRLFKNYQRYLKGSQAAVNPFSERDIDDARQNFLAQDALVKGSVAEQAQIQSQLDSMVNGEQSQIVSLRAQLTEAKYNLEQTVIRAPSNGYVTQVLIRPGTYAAALPLRPVMVFIPEQKRQIVAQFRQNSLLRLKPGDDAEVVFNALPGQVFHGKLTSILPVVPGGSYQAQGVLQSLTVVPGTDGVLGTIELDPNDDIDALPDGIYAQVAVYSDHFSHVSVMRKVLLRMTSWMHYLYLDH [P0AFV0] | 3.52 h | – | – | – | – | – | – | – | – | – | – | –
MDLSQLTPRRPYLLRAFYEWLLDNQLTPHLVVDVTLPGVQVPMEYARDGQIVLNIAPRAVGNLELANDEVRFNARFGGIPRQVSVPLAAVLAIYARENGAGTMFEPEAAYDEDTSIMNDEEASADNETVMSVIDGDKPDHDDDTHPDDEPPQPPRGGRPALRVVK [P0AFZ3] | 5.705 ± 0.0087 h | 4.58 ± 0.2 h | 3.9 ± 0.61 h | 3.43 ± 0.19 h | 2.69 ± 0.14 h | 5.89 ± 0.079 h | 7.4 ± 0.38 h | 3.26 h | 6.17 ± 3 h | 3.73 ± 0.69 h | 7.51 ± 0.57 h | –
MDLTQLEMFNAVAEAGSITQAAAKVHRVPSNLTTRLRQLETELGVDLFIRENQRLRLSPAGHNFLRYSQQILALVDEARSVVAGDEPQGLFSLGSLESTAAVRIPATLAEFNRRYPKIQFSLSTGPSGTMLDGVLEGKLNAAFIDGPINHTAIDGIPVYREELMIVTPQGYAPVTRASQVNGSNIYAFRANCSYRRHFESWFHADGAAPGTIHEMESYHGMLACVIAGAGIALIPRSMLESMPGHHQVEAWPLAEQWRWLTTWLVWRRGAKTRPLEAFIQLLDVPDSARQGYQ | > 8 h | 5.2 h | 4.72 h | 4.76 h | 2.76 h | – | 8.27 h | – | 12.1 ± 2.1 h | 6.44 ± 1 h | 10.7 ± 2.1 h | 4.66 h
MDNLDVICIGAAIVDIPLQPVSKNIFDVDSYPLERIAMTTGGDAINEATIISRLGHRTALMSRIGKDAAGQFILDHCRKENIDIQSLKQDVSIDTSINVGLVTEDGERTFVTNRNGSLWKLNIDDVDFARFSQAKLLSLASIFNSPLLDGKALTEIFTQAKARQMIICADMIKPRLNETLDDICEALSYVDYLFPNFAEAKLLTGKETLDEIADCFLACGVKTVVIKTGKDGCFIKRGDMTMKVPAVAGITAIDTIGAGDNFASGFIAALLEGKNLRECARFANATAAISVLSVGATTGVKNRKLVEQLLEEYEG | 4.78 h | 4.22 h | 5.06 ± 0.82 h | 4.11 ± 0.23 h | 3.18 ± 0.49 h | 5.08 ± 0.33 h | 10.1 ± 0.27 h | 4.39 ± 0.065 h | 7.58 ± 0.17 h | 3.97 h | 7.77 ± 1.9 h | 4.44 ± 0.44 h
MDNVELSPATRWGMIATGLLQGLVCYLLIAWLSGKNHSWIVYGVPATVAFSSVLLFSVISFKQKRLWGWLALVFIATLGMSGWLKWQTDGMNPWRAEKALWDFGCYLLLMAMLLLPWIQQSLRIRNDSSRYRYFYQSVWHNVLILLVIFLANGLTWLVLLLWSELFKLVGITFFNTLFFATDWFIYLTLGLVTALAVILARTQSRLIDSIQKLFTLIATGLLPLVSLLTLMFIITLPFTGLSAISRHISAAGLLLTLAFLQLILMAIVRDPQKASLPWTGPLRCLIKTALLVAPLYVFVAAWALWLRVAQYGWTVDRLQGVLAVLVLLVWSLGYFVSIVWRKGQNPVVLQGKVNLAVSLLVLVILVLLNSPVLDSMRISVNSHMARYQSGKNTSDQVTIYMLEQSGRYGRAALESLKSDAGFMKDPKRARDLLMALDGEQHLQQQVSEKVLADNVLIAPGSVKPDATFWSALIQDRYNVMTCIEKDACVLVEQDLNSDGQAERILFAFNDDRVIVYGFDSDRKEWDALDMSLLPNEITKEKLLTAAKDGKLGTKPKAWRDLVVDGERLNVNLNE | 4.79 h | 3.51 h | 3.21 h | 2.97 ± 0.52 h | 3.78 h | 3.86 ± 0.18 h | 6.23 h | – | – | – | 3.39 h | 3.27 h
MDQALLDGGYRCYTGEKIDVYFNTAICQHSGNCVRGNGKLFNLKRKPWIMPDEVDVATVVKVIDTCPSGALKYRHK [P0AF59] | 5.57 ± 0.28 h | 5.03 h | 5.21 ± 0.78 h | 4.29 ± 0.66 h | 1.83 h | – | 8.02 h | 5.6 ± 1 h | 8.71 ± 1.1 h | – | 10.5 ± 0.21 h | 6.02 ± 0.5 h
MDQIRLTHLRQLEAESIHIIREVAAEFSNPVMLYSIGKDSSVMLHLARKAFYPGTLPFPLLHVDTGWKFREMYEFRDRTAKAYGCELLVHKNPEGVAMGINPFVHGSAKHTDIMKTEGLKQALNKYGFDAAFGGARRDEEKSRAKERIYSFRDRFHRWDPKNQRPELWHNYNGQINKGESIRVFPLSNWTEQDIWQYIWLENIDIVPLYLAAERPVLERDGMLMMIDDNRIDLQPGEVIKKRMVRFRTLGCWPLTGAVESNAQTLPEIIEEMLVSTTSERQGRVIDRDQAGSMELKKRQGYF | 5.8 ± 1.9 h | 3.7 ± 0.045 h | 1.49 ± 0.57 h | 1.29 ± 0.12 h | 1.58 ± 0.062 h | 1.94 ± 0.21 h | 2.88 ± 0.15 h | 1.206 ± 0.0024 h | 1.44 ± 0.29 h | 1.46 ± 0.23 h | 2.57 ± 0.54 h | 1.35 ± 0.17 h
